Assay results reported in IntAct's records for PubMed 18067539.

B1: DNA-binding transcriptional repressor Mlc (Escherichia coli (strain K12)), P50456 (parent)
chain: MVAENQPGHIDQIKQTNAGAVYRLIDQLGPVSRIDLSRLAQLAPASITKIVREMLEAHLVQELEIKEAGNRGRPAVGLVVETEAWHYLSLRISRGEIFLALRDLSSKLVVEESQELALKDDLPLLDRIISHIDQFFIRHQKKLERLTSIAITLPGIIDTENGIVHRMPFYEDVKEMPLGEALEQHTGVPVYIQHDISAWTMAEALFGASRGARDVIQVVIDHNVGAGVITDGHLLHAGSSSLVEIGHTQVDPYGKRCYCGNHGCLETIASVDSILELAQLRLNQSMSSMLHGQPLTVDSLCQAALRGDLLAKDIITGVGAHVGRILAIMVNLFNPQKILIGSPLSKAADILFPVISDSIRQQALPAYSQHISVESTQFSNQGTMAGAALVKDAMYNGSLLIRLLQG
partner: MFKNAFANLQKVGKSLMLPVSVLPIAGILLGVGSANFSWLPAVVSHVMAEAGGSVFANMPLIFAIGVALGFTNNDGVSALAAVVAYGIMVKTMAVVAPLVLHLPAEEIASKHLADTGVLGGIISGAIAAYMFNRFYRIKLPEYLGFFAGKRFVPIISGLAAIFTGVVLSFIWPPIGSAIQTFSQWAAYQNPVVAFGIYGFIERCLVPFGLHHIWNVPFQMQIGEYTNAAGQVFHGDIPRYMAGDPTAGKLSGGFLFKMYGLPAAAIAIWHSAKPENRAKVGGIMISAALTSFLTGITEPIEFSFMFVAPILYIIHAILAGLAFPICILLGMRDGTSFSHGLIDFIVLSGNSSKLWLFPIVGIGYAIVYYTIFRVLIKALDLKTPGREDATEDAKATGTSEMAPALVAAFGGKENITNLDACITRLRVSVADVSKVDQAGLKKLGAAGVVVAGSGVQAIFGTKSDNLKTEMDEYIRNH

Variants of: B1
Conditions: with ptgcb_ecoli ptsG

Row | Variant | effect of a mutation on the interaction
1 | MVAENQPGHIDQIKQTNAGAVYRLIDQLGPVSRIDLSRLAQLAPASITKIVREMLEAHLVQELEIKEAGNRGRPAVGLVVETEAWHYLSLRISRGEIFLALRDLSSKLVVEESQELALKDDLPLLDRIISHIDQFFIRHQKKLERLTSIAITLPGIIDTENGIVHRMPFYEDVKEMPLGEALEQHTGVPVYIQHDISAWTMAEALFGASRGARDVIQVVIDHNVGAGVITDGHLLHAGSSSLVEIGHTQVDPYGKRCYCGNHGCLETIASVDSILELAQLRLNQSMSSMLHGQPLTVDSLCQAALRGDLLAKDIITGVGAHVGRILAIMVNLFNPQKILIGSPLSKAADILFPVISDSIRQQALPAYSQHISVESTQFSNQGTMAGAALVKDAMYNGSLLIRLLQA [G406A] | decreasing interaction strength
